According to US20100316634A1 (published 2010):

Columns and labels:
[1] = molecular target: T1, recombinant human interleukin 5 (IL-5) (human, UniProt P05113 20-134, 125I label (Bolton-Hunter reagent) in the receptor binding inhibition and colony lift assays); test: receptor binding inhibition, 125I-IL-5 on Drosophila membranes with the IL-5R alpha chain
T1 construct: also called human IL-5; hIL-5
Method: Membrane extracts of Drosophila S2 cells expressing the […] of the human IL-5 Receptor (IL-5R) were used to measure the effect of antibody on IL-5 binding to receptor. To prepare the membranes, 10⁹ cells were pelleted at 1000×g at 4° C. for 10 min. The cell pellet was frozen in a dry ice/ethanol bath for 15 min. The pellet was thawed, resuspended in 10 ml PBS at 4° C. and pelleted at 1000×g for 10 min. The cell pellet was washed 2× in PBS and resuspended in 13.5 ml Hypotonic buffer (10 mM Tris pH 7.5, 3 mM MgCl₂, 1 mM dithiothreitol, 1 mM phenylmethylsulfonyl fluoride, 1 uM leupeptin, 1 uM pepstatin A) and incubated on ice for 5 min. The cell suspension was homogenized in a 15 ml Dounce homogenizer and brought to a final concentration of 0.25 M sucrose with a solution of 2.5 M sucrose. Cell debris was removed by a 15 min centrifugation at 1000×g. Cell membranes were pelleted at 100,000×g at 4° C. for 90 min and resuspended in 50 ml of 10 mM Tris pH 7.5, 3 mM MgCl₂, 250 mM sucrose, and stored at −70° C.
Assays with Drosophila membranes containing receptor were performed in MultiscreenGV plates (Millipore Corp., Bedford, Mass.) using Drosophila tissue culture medium M3 (Lindquist et al., Drosophila Inf. Serv., 58: 163 (1982)) containing 25 mM HEPES buffer pH 7.2 and 0.1% BSA (Binding Buffer). Wells were pre-blocked with 0.1 ml binding buffer. […] Filters were dried and counted.

[2] = molecular target: T1, recombinant human interleukin 5 (IL-5); test: optical biosensor

B1: recombinant Fab of mAb 2B6 with C-terminal hexa-His on the heavy chain (Fab, V domains shown)
VH: QVQLKESGPGLVAPSQSLSITCTVSGFSLTSYSVHWVRQPPGKGLEWLGVIWASGGTDYNSALMSRLSISKDNSKSQVFLKLNSLQTDDTAMYYCARDPPSSLLRLDYWGQGTTLTVSS
VL: DIVMTQSPSSLSVSAGEKVTMSCKSSQSLLNSGNQKNYLAWYQQKPGQPPKLLIYGASTRESGVPDRFTGSGSGTDFTLSISSVQAEDLAVYYCQNVHSFPFTFGSGTELEIK
notes: Expressed in E. coli from pMKFabGene3H after removal of gene III; N-terminal residues may be set by the PCR primers; also called Fab fragment from 2B6; 2B6 Fab; not shown: murine gamma 1 constant part of the Fd (CH1 to hinge); murine kappa constant region
Q: For B1, which IC50 [1] is on record?
A: ~7.5 µg/mL

Q: What about the Kd [2] of the same binder?
A: ~0.09 nM
